Test [1] addresses GP73-hFc (human GP73 amino acids 63 to 400 fused at the C-terminus to human IgG1 Fc) (human). Briefly: sandwich EIA on GP73-hFc, coated NC, second antibody NC-Bt.
For test [2] the target is unchanged. Briefly: sandwich EIA on GP73-hFc, coated 1A-3187, second antibody NC-Bt.
For test [3] the target is unchanged. Kind of test: sandwich EIA on GP73-hFc, coated 1A-4246, second antibody NC-Bt.
For test [4] the target is unchanged. Kind of test: sandwich EIA on GP73-hFc, coated 1B-3246, second antibody NC-Bt.
The target is the same in test [5]. Kind of test: sandwich EIA on GP73-hFc, coated 1B-3440, second antibody NC-Bt.
The target is the same in test [6]. Briefly: sandwich EIA on GP73-hFc, coated 1B-4863, second antibody NC-Bt.
Test [7] shares this target. Briefly: sandwich EIA on GP73-hFc, coated 1B-4971, second antibody NC-Bt.
Test [8] shares this target. Kind of test: sandwich EIA on GP73-hFc, coated NC, second antibody 1A-3187-Bt.
The target is the same in test [9]. Kind of test: sandwich EIA on GP73-hFc, coated NC, second antibody 1A-4246-Bt.
Test [10] has the same target. Kind of test: sandwich EIA on GP73-hFc, coated NC, second antibody 1B-3246-Bt.
The target is the same in test [11]. Briefly: sandwich EIA on GP73-hFc, coated NC, second antibody 1B-3440-Bt.
Test [12] has the same target. Kind of test: sandwich EIA on GP73-hFc, coated NC, second antibody 1B-4863-Bt.
Test [13] has the same target. Kind of test: sandwich EIA on GP73-hFc, coated NC, second antibody 1B-4971-Bt.

GP73-hFc (human GP73 amino acids 63 to 400 fused at the C-terminus to human IgG1 Fc) (human), sequence (chain, as listed by the source limits assumed): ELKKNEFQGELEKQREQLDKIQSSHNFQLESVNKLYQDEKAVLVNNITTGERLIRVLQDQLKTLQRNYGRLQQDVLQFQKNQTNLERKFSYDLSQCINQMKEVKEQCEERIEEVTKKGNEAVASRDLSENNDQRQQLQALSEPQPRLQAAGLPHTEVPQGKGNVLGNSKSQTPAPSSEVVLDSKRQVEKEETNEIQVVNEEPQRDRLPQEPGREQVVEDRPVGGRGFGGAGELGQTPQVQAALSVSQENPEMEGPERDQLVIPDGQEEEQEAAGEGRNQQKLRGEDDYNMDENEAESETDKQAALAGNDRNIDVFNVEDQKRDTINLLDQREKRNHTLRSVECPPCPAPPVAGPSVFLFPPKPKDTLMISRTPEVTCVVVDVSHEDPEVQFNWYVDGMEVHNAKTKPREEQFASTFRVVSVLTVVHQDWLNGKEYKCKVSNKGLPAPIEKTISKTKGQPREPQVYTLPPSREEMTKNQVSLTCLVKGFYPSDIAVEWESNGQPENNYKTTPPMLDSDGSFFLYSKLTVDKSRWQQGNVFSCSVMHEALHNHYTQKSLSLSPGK

As to negative control monoclonal antibody, the sandwich assay signal (A492) in [1] turned out to be 0.06 A492; in test [2], 0.06 A492; in test [3] it was 0.08 A492; in [4] it was 0.06 A492; in test [5], 3.07 A492; in test [6] it was 0.06 A492. The sandwich assay signal (A492) was 0.06 A492 in test [7]; 0.09 A492 in test [8]; 0.05 A492 in [9]; 0.05 A492 in [10]; 0.05 A492 in test [11]; 0.05 A492 in [12]. The same substance displayed a sandwich assay signal (A492) in test [13] of 0.06 A492.
